{
  "source": "patent US20180086837A1",
  "about": "(Ablynx, published 2018)",
  "key": {"human CXCR4 [1]": {"molecular_target": "T1, human CXCR4 (human, UniProt P61073 1-352)", "T1 sequence (P61073 whole entry)": "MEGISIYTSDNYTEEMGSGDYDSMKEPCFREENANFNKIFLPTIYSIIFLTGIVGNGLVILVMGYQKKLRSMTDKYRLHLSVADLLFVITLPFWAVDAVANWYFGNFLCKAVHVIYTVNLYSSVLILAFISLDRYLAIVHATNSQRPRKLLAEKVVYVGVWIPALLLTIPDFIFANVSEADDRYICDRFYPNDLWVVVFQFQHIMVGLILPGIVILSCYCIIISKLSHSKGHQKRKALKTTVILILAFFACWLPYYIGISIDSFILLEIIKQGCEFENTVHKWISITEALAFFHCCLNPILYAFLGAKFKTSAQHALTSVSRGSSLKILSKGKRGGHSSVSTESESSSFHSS", "assay": "cell-based or functional assay"}, "human CXCR4 [2]": {"molecular_target": "T1, human CXCR4", "assay": "cell-based or functional assay", "remark": "listed apart in the source"}, "human CXCR4 [3]": {"molecular_target": "T1, human CXCR4", "assay": "cell-based or functional assay", "remark": "listed apart in the source"}, "human CXCR4 [4]": {"molecular_target": "T1, human CXCR4", "assay": "cell-based or functional assay", "remark": "listed apart in the source"}, "human CXCR4 [5]": {"molecular_target": "T1, human CXCR4", "assay": "[125I]-SDF-1 displacement, HEK293-CXCR4 membrane extracts"}, "human CXCR4 [6]": {"molecular_target": "T1, human CXCR4", "assay": "cell-based or functional assay", "remark": "listed apart in the source"}, "human CXCR4 [7]": {"molecular_target": "T1, human CXCR4", "assay": "SDF-1^AF647 displacement, SUPT-1 cells, flow cytometry, n = 3"}, "human CXCR4 [8]": {"molecular_target": "T1, human CXCR4", "assay": "cell-based or functional assay", "remark": "listed apart in the source"}, "human CXCR4 [9]": {"molecular_target": "T1, human CXCR4", "assay": "inhibition of 12G5 (competitor, 10 nM PE-labelled) binding, SUPT-1 cells"}, "human CXCR4 [10]": {"molecular_target": "T1, human CXCR4", "assay": "cell-based or functional assay", "remark": "listed apart in the source"}, "human CXCR4 [11]": {"molecular_target": "T1, human CXCR4", "assay": "cell-based or functional assay", "remark": "listed apart in the source"}, "human CXCR4 [12]": {"molecular_target": "T1, human CXCR4", "assay": "flow cytometry, THP-1 cells (double-positive)"}, "human CXCR4 [13]": {"molecular_target": "T1, human CXCR4", "assay": "flow cytometry, MOLM-13 cells (CXCR4+/CD4+)"}, "human CXCR4 [14]": {"molecular_target": "T1, human CXCR4", "assay": "flow cytometry, Jurkat E6-1 cells (CXCR4+/CD4low)"}, "human CXCR4 [15]": {"molecular_target": "T1, human CXCR4", "assay": "cell-based or functional assay", "remark": "listed apart in the source"}, "human CXCR4 [16]": {"molecular_target": "T1, human CXCR4", "assay": "inhibition of 12G5 (competitor, 10 nM PE-labelled) binding, THP-1 cells"}, "human CXCR4 [17]": {"molecular_target": "T1, human CXCR4", "assay": "competition with 12G5 (competitor, 1 nM), Jurkat cells, flow cytometry"}, "human CXCR4 [18]": {"molecular_target": "T1, human CXCR4", "assay": "[125I]-SDF-1 displacement, HEK293-CXCR4 membrane extracts, n = 3"}, "human CXCR4 [19]": {"molecular_target": "T1, human CXCR4", "assay": "inhibition of 12G5 (competitor, 10 nM PE-labelled) binding, Jurkat cells"}, "human CXCR4 [20]": {"molecular_target": "T1, human CXCR4", "assay": "cell-based or functional assay", "remark": "listed apart in the source"}, "human CXCR4 [21]": {"molecular_target": "T1, human CXCR4", "assay": "inhibition of 12G5 binding, Jurkat cells"}},
  "note": "Several values for one entry are separate records, joined by “and”; a condition that tells them apart may be missing. Equal entries are not always repeated.",
  "data": [
    {"binder": "Nanobody 281F12 (VHH, also called CXCR4 281F12; anti-CXCR4 Nanobody 281F12; not shown: C-terminal c-myc-His6 tag (E. coli) or FLAG3-His6 tag (Pichia)) VHH: EVQLVESGGGLVQAGDSLRLSCAASGRAFSRYAMGWFRQAPGKEREFVAAIGWGPSKTNYADSVKGRFTISRDNAKNTVYLQMNTLKPEDTAVYSCAAKFVNTDSTWSRSEMYTYWGQGTQVTVSS", "values": [
      {"measurement": "IC50, syncytia formation, SupT1 + HUT-78/IIIb", "setting": "human CXCR4 [1]", "result": 1800, "unit": "nM"},
      {"measurement": "IC50, syncytia formation, SupT1 + HUT-78/NL4.3", "setting": "human CXCR4 [1]", "result": 3600, "unit": "nM"},
      {"measurement": "IC50, dual-tropic R5/X4 HIV-1 HE in PBMCs", "setting": "human CXCR4 [2]", "result": 267, "unit": "nM"},
      {"measurement": "average IC50, HIV-1 NL4.3 replication in MT-4 cells", "setting": "human CXCR4 [2]", "result": 0.34, "unit": "µg/mL"},
      {"measurement": "IC50, MT-4, NL4.3 2G12 res.", "setting": "human CXCR4 [3]", "result": 17.3, "unit": "nM"},
      {"measurement": "IC50, MT-4, NL4.3 3F11 res.", "setting": "human CXCR4 [3]", "result": 87.3, "unit": "nM"},
      {"measurement": "IC50, MT-4, NL4.3 281F12 res.", "setting": "human CXCR4 [3]", "result": 2330, "unit": "nM"},
      {"measurement": "IC50, MT-4, NL4.3 AMD-3100 res.", "setting": "human CXCR4 [3]", "result": "> 1700", "unit": "nM"},
      {"measurement": "IC50, MT-4, NL4.3 CXCL-12 res.", "setting": "human CXCR4 [3]", "result": 220, "unit": "nM"},
      {"measurement": "IC50, MT-4, NL4.3 wt", "setting": "human CXCR4 [3]", "result": 22.7, "unit": "nM"},
      {"measurement": "IC50, PBMC, NL4.3 3F11 res.", "setting": "human CXCR4 [3]", "result": 120, "unit": "nM"},
      {"measurement": "IC50, PBMC, NL4.3 281F12 res.", "setting": "human CXCR4 [3]", "result": 310, "unit": "nM"},
      {"measurement": "IC50, PBMC, NL4.3 WT", "setting": "human CXCR4 [3]", "result": 28, "unit": "nM"},
      {"measurement": "IC50, MT-4, HE (R5/X4)", "setting": "human CXCR4 [4]", "result": 10, "unit": "nM"},
      {"measurement": "IC50, MT-4, HIV-2 ROD (R5/X4)", "setting": "human CXCR4 [4]", "result": 86.7, "unit": "nM"},
      {"measurement": "IC50, MT-4, NL4.3 (X4)", "setting": "human CXCR4 [4]", "result": 22.7, "unit": "nM"},
      {"measurement": "IC50, PBMC, BaL (R5)", "setting": "human CXCR4 [4]", "result": "> 1700", "unit": "nM"},
      {"measurement": "IC50, PBMC, DJ259 (R5)", "setting": "human CXCR4 [4]", "result": "> 1700", "unit": "nM"},
      {"measurement": "IC50, PBMC, HE (R5/X4)", "setting": "human CXCR4 [4]", "result": 350, "unit": "nM"},
      {"measurement": "IC50, PBMC, NL4.3 (X4)", "setting": "human CXCR4 [4]", "result": 47, "unit": "nM"},
      {"measurement": "Ki", "setting": "human CXCR4 [5]", "result": "27 nM and 26 nM"},
      {"measurement": "IC50, SDF-1 induced Ca2+ signaling, U87-CD4-CXCR4 cells", "setting": "human CXCR4 [6]", "result": 66.7, "unit": "nM"},
      {"measurement": "IC50", "setting": "human CXCR4 [7]", "result": 6.3, "unit": "nM"},
      {"measurement": "IC50, MT-4 + NL4.3 (X4)", "setting": "human CXCR4 [8]", "result": 22.9, "unit": "nM"},
      {"measurement": "IC50, PBMC + BaL (R5)", "setting": "human CXCR4 [8]", "result": "> 1670", "unit": "nM"},
      {"measurement": "IC50, PBMC + NL4.3 (X4)", "setting": "human CXCR4 [8]", "result": 27.7, "unit": "nM"},
      {"measurement": "IC50, U87 + NL4.3 (X4)", "setting": "human CXCR4 [8]", "result": "> 6670", "unit": "nM"},
      {"measurement": "IC50", "setting": "human CXCR4 [9]", "result": 51.3, "unit": "nM"},
      {"measurement": "IC50, HIV-1 CM237 (clade B) infectivity in PBMC", "setting": "human CXCR4 [10]", "result": 16, "unit": "nM"},
      {"measurement": "IC50, HIV-1 NL4.3 (X4) infectivity in PBMC", "setting": "human CXCR4 [10]", "result": 14, "unit": "nM"},
      {"measurement": "IC50, HIV-1 UG270 (clade D) infectivity in PBMC", "setting": "human CXCR4 [10]", "result": 12, "unit": "nM"},
      {"measurement": "IC90, HIV-1 CM237 (clade B) infectivity in PBMC", "setting": "human CXCR4 [10]", "result": 49, "unit": "nM"},
      {"measurement": "IC90, HIV-1 NL4.3 (X4) infectivity in PBMC", "setting": "human CXCR4 [10]", "result": 57, "unit": "nM"},
      {"measurement": "IC90, HIV-1 UG270 (clade D) infectivity in PBMC", "setting": "human CXCR4 [10]", "result": 2.4, "unit": "nM"},
      {"measurement": "IC50, HIV1 infectivity, X4 NL4.3 in MT-4 cells", "setting": "human CXCR4 [11]", "result": 59.4, "unit": "nM"},
      {"measurement": "EC50", "setting": "human CXCR4 [12]", "result": 3.1, "unit": "nM"},
      {"measurement": "EC50", "setting": "human CXCR4 [13]", "result": 5.2, "unit": "nM"},
      {"measurement": "EC50", "setting": "human CXCR4 [14]", "result": 7, "unit": "nM"},
      {"measurement": "IC50, inhibition of SDF-1a-mediated chemotaxis, Jurkat E6-1 cells", "setting": "human CXCR4 [15]", "result": 84.2, "unit": "nM"},
      {"measurement": "IC50, inhibition of SDF-1a-mediated chemotaxis, MOLM-13 cells", "setting": "human CXCR4 [15]", "result": 86, "unit": "nM"},
      {"measurement": "IC50", "setting": "human CXCR4 [16]", "result": 49.3, "unit": "nM"},
      {"measurement": "IC50", "setting": "human CXCR4 [17]", "result": 13, "unit": "nM"},
      {"measurement": "pKi", "setting": "human CXCR4 [18]", "result": 7.57},
      {"measurement": "IC50", "setting": "human CXCR4 [19]", "result": 13.7, "unit": "nM"},
      {"measurement": "IC50, TZM-bl, DJ259 (R5)", "setting": "human CXCR4 [20]", "result": "> 6700", "unit": "nM"},
      {"measurement": "IC50, TZM-bl, NL4.3 3F11 res", "setting": "human CXCR4 [20]", "result": 45.6, "unit": "nM"},
      {"measurement": "IC50, TZM-bl, NL4.3 281F12 res", "setting": "human CXCR4 [20]", "result": 366, "unit": "nM"},
      {"measurement": "IC50, TZM-bl, NL4.3 WT (X4)", "setting": "human CXCR4 [20]", "result": 23.5, "unit": "nM"},
      {"measurement": "IC50, TZM-bl, SM145 (R5)", "setting": "human CXCR4 [20]", "result": "> 6700", "unit": "nM"}
    ]},
    {"binder": "281F12-35GS-03F11 (bispecific antibody, Bispecific Nanobody construct, CXCR4 arm N-terminal; also called 281F12-35GS-3F11; CXCR4-35GS-CD4; not shown: C-terminal c-myc-His6 tag (E. coli) or FLAG3-His6 tag (Pichia)) EVQLVESGGGLVQAGDSLRLSCAASGRAFSRYAMGWFRQAPGKEREFVAAIGWGPSKTNYADSVKGRFTISRDNAKNTVYLQMNTLKPEDTAVYSCAAKFVNTDSTWSRSEMYTYWGQGTQVTVSSGGGGSGGGGSGGGGSGGGGSGGGGSGGGGSGGGGSEVQLVESGGGSVQPGGSLTLSCGTSGRTFNVMGWFRQAPGKEREFVAAVRWSSTGIYYTQYADSVKSRFTISRDNAKNTVYLEMNSLKPEDTAVYYCAADTYNSNPARWDGYDFRGQGTQVTVSS", "values": [
      {"measurement": "IC50, SDF-1 induced Ca2+ signaling, U87-CD4-CXCR4 cells", "setting": "human CXCR4 [6]", "result": 5.31, "unit": "nM"},
      {"measurement": "IC50", "setting": "human CXCR4 [7]", "result": 0.96, "unit": "nM"},
      {"measurement": "IC50", "setting": "human CXCR4 [9]", "result": 1.5, "unit": "nM"},
      {"measurement": "fold loss of potency compared to monovalent CXCR4 Nanobody construct", "setting": "human CXCR4 [21]", "result": 2, "unit": "fold"},
      {"measurement": "IC50, inhibition of SDF-1a-mediated chemotaxis, Jurkat E6-1 cells", "setting": "human CXCR4 [15]", "result": 110, "unit": "nM"},
      {"measurement": "IC50, inhibition of SDF-1a-mediated chemotaxis, MOLM-13 cells", "setting": "human CXCR4 [15]", "result": 0.59, "unit": "nM"},
      {"measurement": "Ratio to 281F12 (fold increase in potency), chemotaxis, Jurkat E6-1 cells", "setting": "human CXCR4 [15]", "result": 0.8, "unit": "fold"},
      {"measurement": "Ratio to 281F12 (fold increase in potency), chemotaxis, MOLM-13 cells", "setting": "human CXCR4 [15]", "result": 146, "unit": "fold"},
      {"measurement": "IC50", "setting": "human CXCR4 [16]", "result": 2.48, "unit": "nM"},
      {"measurement": "IC50", "setting": "human CXCR4 [19]", "result": 29.3, "unit": "nM"}
    ]}
  ]
}
